Literature values in publication PMC4245983.
pKd: −log10 of the molar value. Where two headings read alike, the source gives them in different places.

Legend:
IscU (Escherichia coli) [1] = target: IscU (Escherichia coli) (UniProt P0ACD4); conditions: cited from earlier work
IscU (Escherichia coli) [2] = target: IscU (Escherichia coli) (UniProt P0ACD4); conditions: cited from earlier work; remark: listed apart in the source

IscU (Escherichia coli), sequence (P0ACD4 whole entry): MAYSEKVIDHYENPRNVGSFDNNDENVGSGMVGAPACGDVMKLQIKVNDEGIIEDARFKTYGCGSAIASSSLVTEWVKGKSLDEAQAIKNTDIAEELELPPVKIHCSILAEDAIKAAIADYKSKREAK
HscA, sequence (P0A6Z1 whole entry): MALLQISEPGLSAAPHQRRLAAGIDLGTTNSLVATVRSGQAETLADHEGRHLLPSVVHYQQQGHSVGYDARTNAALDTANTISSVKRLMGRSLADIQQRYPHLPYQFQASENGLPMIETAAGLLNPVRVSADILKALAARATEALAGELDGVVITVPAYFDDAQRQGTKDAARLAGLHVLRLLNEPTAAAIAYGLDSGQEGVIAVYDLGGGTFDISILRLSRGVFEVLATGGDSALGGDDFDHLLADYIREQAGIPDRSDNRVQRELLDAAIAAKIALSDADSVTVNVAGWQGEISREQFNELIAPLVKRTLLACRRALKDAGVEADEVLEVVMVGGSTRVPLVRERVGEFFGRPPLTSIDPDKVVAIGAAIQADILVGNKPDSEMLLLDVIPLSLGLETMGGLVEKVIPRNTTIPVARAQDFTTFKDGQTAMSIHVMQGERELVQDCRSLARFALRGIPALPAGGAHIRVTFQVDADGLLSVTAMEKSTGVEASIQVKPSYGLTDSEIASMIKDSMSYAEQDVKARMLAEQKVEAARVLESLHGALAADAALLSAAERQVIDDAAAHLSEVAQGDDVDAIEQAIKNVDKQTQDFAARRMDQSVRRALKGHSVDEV

HscA (from UniProt P0A6Z1)
pKd (IscU (Escherichia coli) [1]): 5.80 | pKd (IscU (Escherichia coli) [2]): 4.43
